From the supplement of paper PMC10126150
± gives the standard deviation of the averaged measurements.

The sequences below were run on ATP (assay: switch fluorescence ratio, 500 uM ATP over buffer (Cy3 cluster intensity, sum of 5 cycles each) (fold (ratio)); higher = stronger signal-on switching upon ATP binding; sequences stand for … in TCGTCGGCAGCGTCAGATGTGTATAAGAGACAGTTTTTTTTTTTTTTTTTTTTTTTTT…TC). Conditions: aptamer strand: ATP DNA aptamer (quencher-CACCTGGGGGAGTATTGCGGAGGAAGG + anchor), 100 nM annealed; ATP concentration: 500 uM.
Summary of the method: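 Exposure to 500 uM ATP lasted 15 min at 22 °C before imaging, and a selection-buffer image was taken beforehand, for Cy3-labelled switching-strand clusters on a modified Illumina MiSeq flow-cell annealed to 100 nM quencher-labelled ATP aptamer. Five buffer/ATP cycles were run with NaOH stripping and re-annealing between them. The fluorescence ratio per cluster is summed target-cycle over summed buffer-cycle Cy3 intensity, averaged per switch-domain sequence. Clusters outside 100-1000 RFU were excluded.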

In order of rising switch fluorescence ratio:
1. CGTGGGCAGT  0.956 ± 0.041
2. TTCCATGTCG  0.958 ± 0.02
3. ATTTCTTGG  0.958 ± 0.031
4. TGCTAATCTG  0.958 ± 0.025
5. AGTGAGTCGT  0.961 ± 0.035
6. TGTGAGGGTT  0.964 ± 0.012
7. TATTTGAGTT  0.96526 ± 0.00075
8. TTGGTAGAGT  0.965 ± 0.04
9. TCTATTGGTT  0.966 ± 0.021
10. AAGTCAGAGC  0.97 ± 0.097
11. TTTGTGAATT  0.972 ± 0.012
12. GCTGGTTTGG  0.972 ± 0.052
13. TGAGAGGGGC  0.973 ± 0.058
14. ATTTATGGTG  0.973 ± 0.031
15. CCTATGGGGT  0.974 ± 0.024
16. TCCAATCATG  0.9765 ± 0.0095
17. TTGAGTCATG  0.978 ± 0.047
18. GGGGCAGTCA  0.9785 ± 0.0031
19. TGTCAGTTAT  0.979 ± 0.031
20. TGCTTCTTTG  0.979 ± 0.011
21. CATTAATAGT  0.98 ± 0.031
22. TATTGTTCGC  0.98 ± 0.046
23. AATGTTTGGG  0.981 ± 0.021
24. GTTGATTTTG  0.981 ± 0.042
25. AAAGTTCGGG  0.982 ± 0.033
26. ATGGGTAAGG  0.983 ± 0.019
27. GATGTGTGGG  0.9843 ± 0.0015
28. TCGTGTATTG  0.984 ± 0.026
29. TAGGACCTGT  0.9849 ± 0.0073
30. GTCTGAGGCT  0.9853 ± 0.0076
31. TTGTAGTTGG  0.986 ± 0.058
32. TGTTTCGACG  0.986 ± 0.038
33. ATGTGCATGT  0.986 ± 0.024
34. GTCTATAATT  0.9879 ± 0.0048
35. TTTCTGTTGC  0.9887 ± 0.0047
36. AAAAGATAGC  0.989 ± 0.04
37. AGGTTGCGAG  0.989 ± 0.019
38. CTAGTTTTTT  0.9893 ± 0.0062
39. GAATCCGGTT  0.989 ± 0.019
40. TAGGGTTCAA  0.989 ± 0.02
41. TGCTTAAGAT  0.99 ± 0.023
42. TTTGATGGGC  0.9911 ± 0.0075
43. AGAGGCGAGG  0.9913 ± 0.0013
44. AAAAATGACG  0.991 ± 0.028
45. AATTGTTATT  0.9919 ± 0.0034
46. TTTGAATAGA  0.992 ± 0.019
47. GGTAGGGAGC  0.993 ± 0.055
48. TGTGTGTTGG  0.993 ± 0.024
49. CGGGACTCTT  0.995 ± 0.017
50. CGGTCAGGGT  0.995 ± 0.015
51. TTAGTGATTA  0.996 ± 0.014
52. TATTGGGGTT  0.996 ± 0.04
53. GCGCAAAATT  0.9973 ± 0.0046
54. AGCATTGTGA  0.998 ± 0.051
55. TTGAACGAGA  0.998 ± 0.019
56. GGGGGTAATA  0.999 ± 0.021
57. CTCGTAAACG  1 ± 0.02
58. TCTGGACTCG  1 ± 0.025
59. TATAATAGTA  1.0013 ± 0.001
60. AAATTAAAGG  1 ± 0.013
61. TTTAGGTAT  1 ± 0.023
62. CTAGGTCTGT  1 ± 0.011
63. TGAGCATGCT  1 ± 0.021
64. TTGGGGTCCC  1 ± 0.037
65. CGGATTGAAT  1 ± 0.072
66. TTGGTACCGC  1 ± 0.048
67. TGAAAGTCTC  1.003 ± 0.0057
68. ATATCAATGT  1 ± 0.028
69. TGCTGGCGCG  1 ± 0.033
70. TCAGTGCTGT  1 ± 0.035
71. AGGATAGATA  1 ± 0.012
72. ATTATGTTTG  1.002 ± 0.0097
73. AGGGGTACTT  1 ± 0.049
74. TTCAATGTAG  1 ± 0.029
75. CCTGTACGGA  1.004 ± 0.0067
76. ATGTGTGTA  1 ± 0.021
77. TTTGTTGGTG  1 ± 0.029
78. GATTTCGGGA  1.01 ± 0.04
79. TGGTTTATTG  1.01 ± 0.024
80. TTCGGTATGT  1.01 ± 0.027
81. TTGAGATTCG  1.01 ± 0.031
82. ATGGTGCGGC  1.008 ± 0.0018
83. ATGGGGACTA  1.0122 ± 0.00084
84. AATCGATCGG  1.01 ± 0.028
85. TGCACAGTCG  1.01 ± 0.036
86. GTTTGGGGCG  1.01 ± 0.035
87. TCAGGTATGT  1.01 ± 0.038
88. CGTGGGTGGG  1.01 ± 0.036
89. AACATTTAGC  1.01 ± 0.039
90. TGTTTGTATC  1.01 ± 0.016
91. AAGGGATTGA  1.01 ± 0.011
92. CATCAAGGCA  1.01 ± 0.019
93. GACGGTTCGT  1.01 ± 0.022
94. GGTCGGCATA  1.01 ± 0.042
95. GGAAAGGGGG  1.01 ± 0.064
96. TGATGGGCAT  1.01 ± 0.018
97. GGGGAGGGAA  1.01 ± 0.027
98. CGGAGTCGCC  1.01 ± 0.012
99. TATTAAGG  1.01 ± 0.011
100. CGTGAGATGC  1.01 ± 0.038
101. CTGTGGGCGC  1.01 ± 0.027
102. GTGTGCTGTG  1.01 ± 0.063
103. TCTTGCTCGG  1.01 ± 0.053
104. TGTATTTTTG  1.02 ± 0.029
105. TTCAGTGCAT  1.02 ± 0.051
106. AATATTTGAA  1.02 ± 0.021
107. TGTTTATGGT  1.02 ± 0.017
108. TCTTTGGTCG  1.02 ± 0.12
109. AAAATCGAGC  1.02 ± 0.015
110. TCTCGCTTGG  1.02 ± 0.037
111. TTTGGAGGGT  1.02 ± 0.064
112. TGGGAGGGTG  1.02 ± 0.067
113. GCCTATAACT  1.016 ± 0.0077
114. CGTACGTGCA  1.02 ± 0.032
115. CATTTGGATG  1.02 ± 0.013
116. CGGATTGTGT  1.018 ± 0.0055
117. GCCGGGTATG  1.02 ± 0.022
118. TTTCTAATGG  1.02 ± 0.026
119. TCAAAAAAAT  1.02 ± 0.091
120. AAAATAATTG  1.03 ± 0.025
121. AGCAGGGTTG  1.029 ± 0.01
122. ACTCGGTTGG  1.03 ± 0.037
123. AAAGGTTCAA  1.03 ± 0.011
124. TGTAGTCTTT  1.03 ± 0.052
125. AAGGAGGCAG  1.03 ± 0.045
126. TACAGTGAGC  1.026 ± 0.0019
127. GCCGTACCTG  1.041 ± 0.00042
128. TTTTGGGCAT  1.04 ± 0.11
129. GGGCAAGGGC  1.038 ± 0.01
130. CGCGGGGTAG  1.038 ± 0.0072
131. TATTGCTCAC  1.04 ± 0.02
132. TTCATGGGGC  1.05 ± 0.086
133. TTACCGGGAG  1.05 ± 0.013
134. TACTTGAGTT  1.05 ± 0.012
135. TATTTGGACG  1.05 ± 0.068
136. TCGCCTTTGG  1.07 ± 0.072
137. CCCGTGCTTC  1.07 ± 0.063
138. GGCGAAAACT  1.073 ± 0.0052
139. CTGGGTAGAC  1.08 ± 0.011
140. TGGGCAATTT  1.09 ± 0.036
141. GCGCAGCGGC  1.09 ± 0.023
142. TTTTCATGCC  1.09 ± 0.056
143. TTGTTGGTGC  1.09 ± 0.014
144. GGTGAGGGTG  1.1 ± 0.013
145. GGATTAGGTG  1.12 ± 0.017
146. TGGTTTACTC  1.14 ± 0.18
147. ATCGGATTTT  1.17 ± 0.22
148. GTTCAGGGGA  1.27 ± 0.41
149. AAAAAAACCT  1.28 ± 0.39
150. ATGCAAATGC  1.41 ± 0.017
151. TGGCGTTTAC  1.46 ± 0.64
152. TCCGGACCTC  1.5 ± 0.34
153. GATGCAAGGG  1.83 ± 0.14
154. GCTGCGCATT  1.94 ± 0.028
155. CCGCGGGGTG  2.2 ± 0.77
156. TCCTCCGTGG  2.56 ± 0.59
157. CGCCGGGTGC  2.75 ± 0.43
